In assay [1] the target is T1, recombinant biotinylated monomeric Fc fusion of murine Folate Receptor 1 (mu FolR1 ECD-AcTev-Fcknob-Avitag … (murine, UniProt P0DOX5 223-449 = IgG part, biotin on the C-terminal Avi tag)).
T1 construct: also called muFolR1-Fc; murine FolR1
As to the kind of experiment: SPR Biacore, single injection on immobilized antigen-Fc. The procedure: (§1) Binding of FolR1 binders as IgG or in the T-cell bispecific format to different recombinant folate receptors (human FolR1, 2 and 3, murine FolR1 and cynomolgus FolR1; all as Fc fusions) was assessed by surface plasmon resonance (SPR). All SPR experiments were performed on a Biacore T200 at 25° C. with HBS-EP as running buffer (0.01 M HEPES pH 7.4, 0.15 M NaCl, 3 mM EDTA, 0.005% Surfactant P20, Biacore, Freiburg/Germany).
(§2) First the anti-FolR1 IgGs were analyzed by single injections (Table 1) to characterize their crossreactivity (to human, murine and cyno FolR1) and specificity (to human FolR1, human FolR2, human FolR3). Recombinant biotinylated monomeric Fc fusions of human, cynomolgus and murine Folate Receptor 1 (FolR1-Fc) or human Folate Receptor 2 and 3 (FolR2-Fc, FolR3-Fc) were directly coupled on a SA chip using the standard coupling instruction (Biacore, Freiburg/Germany). The immobilization level was about 300-400 RU. The IgGs were injected for 60 seconds at a concentration of 500 nM.
A general note: In SPR one partner is held on a chip, and binding of the other changes the refractive index at the surface.

The target of assay [2] is T2, recombinant biotinylated monomeric Fc fusion of human Folate Receptor 3 (hu FolR3 ECD-AcTev-Fcknob-Avi tag … (human, UniProt P0DOX5 223-449 = IgG part, biotin on the C-terminal Avi tag)).
T2 construct: also called FolR3-Fc
As to the kind of experiment: SPR ProteOn, Fab analyte on immobilized antigen-Fc. Here is the method:
(§3) Immobilization of antigens (ligand): Recombinant antigens were diluted with PBST (10 mM phosphate, 150 mM sodium chloride pH 7.4, 0.005% Tween 20) to 10 μg/ml, then injected at 30 μl/minute in vertical orientation. Injection of analytes: For ‘one-shot kinetics’ measurements, injection direction was changed to horizontal orientation, two-fold dilution series of purified Fab (varying concentration ranges) were injected simultaneously along separate channels 1-5, with association times of 200 s, and dissociation times of 600 s. Buffer (PBST) was injected along the sixth channel to provide an “in-line” blank for referencing. Association rate constants (kₒₙ) and dissociation rate constants (koff) were calculated using a simple one-to-one Langmuir binding model in ProteOn Manager v3.1 software by simultaneously fitting the association and dissociation sensorgrams. The equilibrium dissociation constant (KD) was calculated as the ratio koff/kₒₙ.

For assay [3], the target named is T3, recombinant biotinylated monomeric Fc fusion of human Folate Receptor 1 (huFolR1 ECD-AcTev-Fcknob-Avi tag … (human, UniProt P0DOX5 223-449 = IgG part, biotin on the C-terminal Avi tag)).
T3 construct: also called huFolR1-Fc; human FolR1-Fc
As to the kind of experiment: SPR ProteOn, Fab analyte on immobilized antigen-Fc. The procedure:
as §3

The target in assay [4] is T4, recombinant biotinylated monomeric Fc fusion of cynomolgus Folate Receptor 1 (cy FolR1 ECD-AcTev-Fcknob-Avi … (cynomolgus, UniProt P0DOX5 223-449 = IgG part, biotin on the C-terminal Avi tag)).
T4 construct: also called cyFolR1-Fc; cyno FolR1
Nature of the assay: SPR ProteOn, Fab analyte on immobilized antigen-Fc. The procedure:
as §3

Assay [5] concerns the target T5, recombinant biotinylated monomeric Fc fusion of human Folate Receptor 2 (hu FolR2 ECD-AcTev-Fcknob-Avi tag … (human, UniProt P0DOX5 223-449 = IgG part, biotin on the C-terminal Avi tag)).
T5 construct: also called FolR2-Fc
Nature of the assay: SPR ProteOn, Fab analyte on immobilized antigen-Fc. The procedure: as §3

The target of assay [6] is T2, recombinant biotinylated monomeric Fc …. Nature of the assay: SPR Biacore, single injection on immobilized antigen-Fc. Here is the method: as §1, §2
In assay [7] the target is T5, recombinant biotinylated monomeric Fc …. The assay is described as above. Here is the method:
as §1, §2

B1: 5D9 IgG (antibody, V domains shown)
VH: QVQLVQSGAEVKKPGASVKVSCKASGYTFTSYYMHWVRQAPGQGLEWMGIINPSGGSTSYAQKFQGRVTMTRDTSTSTVYMELSSLRSEDTAVYYCARSYIDMDYWGQGTLVTVSS
VL: EIVLTQSPGTLSLSPGERATLSCRASQSVSSSYLAWYQQKPGQAPRLLIYGASSRATGIPDRFSGSGSGTDFTLTISRLEPEDFAVYYCQQDNWSPTFGQGTKVEIK
notes: human IgG1
Take B1: the binding result in assay [1] is on record as “no binding (tested: 500 nM)”.

B2: 6B6 IgG (antibody, V domains shown)
VH: QVQLVQSGAEVKKPGASVKVSCKASGYTFTSYYMHWVRQAPGQGLEWMGIINPSGGSTSYAQKFQGRVTMTRDTSTSTVYMELSSLRSEDTAVYYCARSYVDMDYWGQGTLVTVSS
VL: EIVLTQSPGTLSLSPGERATLSCRASQSVSSSYLAWYQQKPGQAPRLLIYGASSRATGIPDRFSGSGSGTDFTLTISRLEPEDFAVYYCQQDIWSPTFGQGTKVEIK
notes: human IgG1
As for B2, the binding result in assay [1] is listed as “no binding (tested: 500 nM)”.

B3: 15A1 Fab (Fab, V domains shown)
VH: QVQLVQSGAEVKKPGASVKVSCKASGYTFTSYYMHWVRQAPGQGLEWMGIINPSGGSTSYAQKFQGRVTMTRDTSTSTVYMELSSLRSEDTAVYYCARNYYIGVVTFDYWGQGTLVTVSS
VL: QAVVTQEPSLTVSPGGTVTLTCGSSTGAVTTSNYANWVQEKPGQAFRGLIGGTNKRAPGTPARFSGSLLGGKAALTLSGAQPEDEAEYYCALWYSNLWVFGGGTKLTVL
notes: bacterial Fab
As for B3, the binding result in assay [2] and in assay [5] was “no binding” throughout. Moreover, the results for the Kd in assay [3] and in assay [4] were 30.9 nM and 17.3 nM, respectively.

B4: 18D3 Fab (Fab, V domains shown)
VH: QVQLVQSGAEVKKPGASVKVSCKASGYTFTSYYMHWVRQAPGQGLEWMGIINPSGGSTSYAQKFQGRVTMTRDTSTSTVYMELSSLRSEDTAVYYCARNYYTGGSSAFDYWGQGTLVTVS
VL: QAVVTQEPSLTVSPGGTVTLTCGSSTGAVTTSNYANWVQEKPGQAFRGLIGGTNKRAPGTPARFSGSLLGGKAALTLSGAQPEDEAEYYCALWYSNLWVFGGGTKLTVL
notes: bacterial Fab
Consider B4, for which the binding result in assay [2] and in assay [5] was “no binding” throughout. Besides, the Kd – broadly, the constant that tells how readily two partners part at equilibrium – was 93.6 nM in assay [3] and 40.2 nM in assay [4].

B5: 16A3 Fab (Fab, V domains shown)
VH: QVQLVQSGAEVKKPGASVKVSCKASGYTFTSYYMHWVRQAPGQGLEWMGIINPSGGSTSYAQKFQGRVTMTRDTSTSTVYMELSSLRSEDTAVYYCARNYYAGVTPFDYWGQGTLVTVSS
VL: QAVVTQEPSLTVSPGGTVTLTCGSSTGAVTTSNYANWVQEKPGQAFRGLIGGTNKRAPGTPARFSGSLLGGKAALTLSGAQPEDEAEYYCALWYSNLWVFGGGTKLTVL
notes: bacterial Fab
Take B5: the binding result in assay [2] and in assay [5] was “no binding” each time. Further, the figures for the Kd in assay [3] and in assay [4] were 21.7 nM and 18 nM, respectively.

B6: 19E5 Fab (Fab, V domains shown)
VH: QVQLVQSGAEVKKPGASVKVSCKASGYTFTSYYMHWVRQAPGQGLEWMGIINPSGGSTSYAQKFQGRVTMTRDTSTSTVYMELSSLRSEDTAVYYCARGEWRRYTSFDYWGQGTLVTVSS
VL: QAVVTQEPSLTVSPGGTVTLTCGSSTGAVTTSNYANWVQEKPGQAFRGLIGGTNKRAPGTPARFSGSLLGGKAALTLSGAQPEDEAEYYCALWYSNLWVFGGGTKLTVL
notes: bacterial Fab
B6: the dissociation constant (Kd) in assay [4] was 276 nM.

B7: 15H7 Fab (Fab, V domains shown)
VH: QVQLVQSGAEVKKPGASVKVSCKASGYTFTSYYMHWVRQAPGQGLEWMGIINPSGGSTSYAQKFQGRVTMTRDTSTSTVYMELSSLRSEDTAVYYCARNYYLFSTSFDYWGQGTLVTVSS
VL: QAVVTQEPSLTVSPGGTVTLTCGSSTGAVTTSNYANWVQEKPGQAFRGLIGGTNKRAPGTPARFSGSLLGGKAALTLSGAQPEDEAEYYCALWYSNLWVFGGGTKLTVL
notes: bacterial Fab
For the molecule B7, the binding result in assay [2] and in assay [5] was “no binding” in each case. The dissociation constant Kd in assay [4] stood at 72.5 nM.

B8: 21D1 Fab (Fab, V domains shown)
VH: QVQLVQSGAEVKKPGASVKVSCKASGYTFTSYYMHWVRQAPGQGLEWMGIINPSGGSTSYAQKFQGRVTMTRDTSTSTVYMELSSLRSEDTAVYYCARNYYVGVSPFDYWGQGTLVTVSS
VL: QAVVTQEPSLTVSPGGTVTLTCGSSTGAVTTSNYANWVQEKPGQAFRGLIGGTNKRAPGTPARFSGSLLGGKAALTLSGAQPEDEAEYYCALWYSNLWVFGGGTKLTVL
notes: bacterial Fab
As for B8, the binding result in assay [2] and in assay [5] was “no binding” throughout. The dissociation constant Kd was 62.6 nM in assay [3] and 32.1 nM in assay [4].

B9: 21G8 IgG (antibody, V domains shown)
VH: not shown
VL: QAVVTQEPSLTVSPGGTVTLTCGSSTGAVTTSNYANWVQEKPGQAFRGLIGGTNKRAPGTPARFSGSLLGGKAALTLSGAQPEDEAEYYCALWYSNLWVFGGGTKLTVL
notes: human IgG1
Turning to B9, the binding result in assay [1] is “no binding (tested: 500 nM)”.

B10: 20G6 Fab (Fab, V domains shown)
VH: QVQLVQSGAEVKKPGASVKVSCKASGYTFTSYYMHWVRQAPGQGLEWMGIINPSGGSTSYAQKFQGRVTMTRDTSTSTVYMELSSLRSEDTAVYYCARGEWIRYYHFDYWGQGTLVTVSS
VL: QAVVTQEPSLTVSPGGTVTLTCGSSTGAVTTSNYANWVQEKPGQAFRGLIGGTNKRAPGTPARFSGSLLGGKAALTLSGAQPEDEAEYYCALWYSNLWVFGGGTKLTVL
notes: bacterial Fab
B10: the binding result in assay [2], in assay [3], in assay [4] and in assay [5] was “no binding” each time.

B11: 16F12 IgG (antibody, V domains shown)
VH: QVQLVQSGAEVKKPGASVKVSCKASGYTFTSYYMHWVRQAPGQGLEWMGIINPSGGSTSYAQKFQGRVTMTRDTSTSTVYMELSSLRSEDTAVYYCARNFTVLRVPFDYWGQGTLVTVSS
VL: QAVVTQEPSLTVSPGGTVTLTCGSSTGAVTTSNYANWVQEKPGQAFRGLIGGTNKRAPGTPARFSGSLLGGKAALTLSGAQPEDEAEYYCALWYSNLWVFGGGTKLTVL
notes: human IgG1
B11: the binding result in assay [6], in assay [1] and in assay [7] was “no binding (tested: 500 nM)” throughout.

B12: 15B6 IgG (antibody, V domains shown)
VH: QVQLVQSGAEVKKPGASVKVSCKASGYTFTSYYMHWVRQAPGQGLEWMGIINPSGGSTSYAQKFQGRVTMTRDTSTSTVYMELSSLRSEDTAVYYCARNYYIGIVPFDYWGQGTLVTVSS
VL: QAVVTQEPSLTVSPGGTVTLTCGSSTGAVTTSNYANWVQEKPGQAFRGLIGGTNKRAPGTPARFSGSLLGGKAALTLSGAQPEDEAEYYCALWYSNLWVFGGGTKLTVL
notes: human IgG1
On to B12, for which the binding result in assay [6], in assay [1] and in assay [7] was “no binding (tested: 500 nM)” in each case.

B13: 19H3 Fab (Fab, V domains shown)
VH: QVQLVQSGAEVKKPGASVKVSCKASGYTFTSYYMHWVRQAPGQGLEWMGIINPSGGSTSYAQKFQGRVTMTRDTSTSTVYMELSSLRSEDTAVYYCARTGWSRWGYMDYWGQGTLVTVSS
VL: QAVVTQEPSLTVSPGGTVTLTCGSSTGAVTTSNYANWVQEKPGQAFRGLIGGTNKRAPGTPARFSGSLLGGKAALTLSGAQPEDEAEYYCALWYSNLWVFGGGTKLTVL
notes: bacterial Fab
Regarding B13, the binding result in assay [2], in assay [3], in assay [4] and in assay [5] was “no binding” throughout.

The record behind these values is patent publication US20220220224A1 (Hoffmann-La Roche, published 2022).
